We go through nine sequences from the DeepSol protein solubility set.

The nature of this data set: soluble on expression in E. coli; label from the status in PepcDB or PDB records.
Take “MSLCRVLRVKHSSYYDWLSRDISEQQIHRNHCELLVKAAHSETHERYGVERLHAHLSEQGHNISPYMVRSIKEEYSIKCRRHKRFKVTTDSNHNKLVYPNVLDQEFDASRPNQAWASDITYIWTLEGWLYLAGVKDLYTKELVGYAINKRMTADLVCKALNMAIKNKQPSKGLVVHSDRGSQYCSHAYHKIIKQHQFTGSMSGKGNCFDNAPIESFWGILKNELVYHQDYKTRFAAIRDIIGYIELYYNQTRIQKGLGYKSPRQVWFDYYRQAAEGHHHHHH”: the “soluble on expression in E. coli” value was “soluble”.

Regarding “MSLDDHTRDPTVKAPDGNPSGWRTDGQWEHETLRRAVVHGVRLYNSGEFHESHDCFEDEWYNYGRGNTESKFLHGMVQVAAGAYKHFDFEDDDGMRSLFRTSLQYFRGVPNDYYGVDLLDVRTTVTNALSDPSALHGWQIRLDGEYPTCRPEDIEFAESLEHEGHHHHHH”, the “soluble on expression in E. coli” value is reported as “soluble”. In the case of “MSLDDLWQTLPDPAELVTVGDLRGMIHTHSTWSDGGASIREMAEATLTLGHEFLGTADHSRAAYYANGLTIERLREQLKEIRELQRAGLPIVAGSEVDILDDGSLDFPDDVLGELDYVVVSVHSNFTLDAARQTERLIRAVSHPLVTVLGHATGRLLLRRPGYALDLDAVLGACEANGTVVEINANAARLDLDWREALRWRERLKFAINTDAHVPGGLRDARYGVMQARKAGLTPAHVVNSLGRAEFLDFVARQRAARGAPGPADREGHHHHHH” it was “not soluble”. For the sequence “MSLDEKKLKALAVELAKGLKTEADLNSFSRMLAKLTVETVLNAELADHPGYEKNAPKTGSNTRNGYSSKTVLCDDGEIELNTPRDRENTFEPQLLKKHQTRITQMDSQILSLYAKGMTTREIVATFKEMYDANVSPSLISKVTDAVKEQVTERQNRQPDALYPIVYMDCIVVKVRQNGSVINKAVFLALGINTEGQKELLGMWLAENEGEKFWLSVLTELKTRGVQDILIACVDGLKGFPDAINSVFPQPHIQLCIIHMVRNSLKYVAWKGYKVATSGLRLRPKRRHEGHHHHHH”, the “soluble on expression in E. coli” value is “not soluble”.

For the sequence “MSLDENLIEEIKLADDISKGYNAALNYLSYQLRTRKEVEDKLRSLDIHEDYISEIINKLIDLDLINDKNYAESYVRTMMNTSDKGPKVIKLNLSKKGIDDNIAEDALILYTDKLQVEKGVTLAEKLANRYSHDSYRNKQNKIKQSLLTKGFSYDIIDTIIQELDLIFDDDTEREILLEKANKLWSRYDNLDIKKRKFKIQQALFKQGFSFSNITSALDEIEDTNEGHHHHHH”, the “soluble on expression in E. coli” value is listed as “soluble”. With “MSLDGKPTIIIKYGKIDEEAMKSQRYNFDDLMVQLRENSIDRVADVSFAILEPSGKLTIVKKENSGEHRQLEMPLIIDGFIQTENLSRISKDRKWLLESLQKHGYTNPSDISFCSFTDGEIYIDEKDGHRTKGIITITTDPNSSSVDKLAAALEHHHHHH”, the “soluble on expression in E. coli” value is recorded as “soluble”. Regarding “MSLDIAYFTKTLEGLPLEKAAEITAGLGFDCADLLIRDGHAVSPDRPEGIANAVKFFAAAGVRTSMATIDSARPDDAASRLLSCCGEAGIGQIRLGFWRYDPSRRWRVQVDEARRDLDGFERLADRFGIKLTIQLHGGTLHSSGALAVQLLAGRDPIRLGAYPDPANQIIREGSEDWRLTLDILDPWFCCMGVKNSGWFPGAYGSHGQRAWHSDWYGLDEGMVPWNEIVPHLVATGFTGVLSMHSQYRVSREQALDKVRADLAHFRRLVAAAKEGHHHHHH”, the “soluble on expression in E. coli” value is recorded as “not soluble”.

Turning to “MSLDKKPVTTRKKVKVTGTETYINQSTGEIKEMQVIDIEERDFNFHKVWLEHIIHSMDLIGNQKTRLAFWLINNLNRDNVLIMTQRKIAEKTGISLETVRQTMKALMESGFLIKINSGAYCVNPDAVFKGGKTDRLNVLIQYRKSEQENTKTSEPTSEKDEPSLFNNEQLKAMEGHHHHHH”, the “soluble on expression in E. coli” value was “soluble”. As to “MSLDSDPDTLVVHTQLGTTAPGSPTYLAAVDRFREENPGVKIKNLVNGDDLAQVYETSRLARKEADVVMVNLYDKTLAWTDVGATVDVKPYLDDWGLRGRVLPAALADWTDDEGRVRAFPYFATNWPVAYNRALLDRAGVDAIPTTGDQLIAAARKLRAKGIAPVTVGGNDWTGQKLLAQIIQTFLSQDEARHVYSTGDFGVRGARLGIEYFAHLRDAGVFADKAQGLTSDSMTTQFNTEEAAVQSAMSSALAKVPEKVAGHTEVGGWPLADGAAHDGPTVIRAYTLIGFWISPNGVRKIEQVEKFLRFMYRPDVVARFVTESGRDMALRTDAVSTGFPLVGAAQRLGSEVSQVLLPDVYVPPAAAQPLITATSTSFTRGTSPARVRAALESAYRSVEGHHHHHH”, the “soluble on expression in E. coli” value is reported as “soluble”.
